Results reported in US8431365B2, “β1,3-N-acetyl-D-galactosamine transferase protein, nucleic acid encoding the same and method of examining canceration using the same” (National Institute of Advanced Industrial Science and …, priority 2003, dated 2013).

Assays:
Type in all cases: biochemical
human G34 protein [1] = biological target: T1, human G34 protein (Homo sapiens, UniProt Q8NCR0); experiment: Screening of GalNAc transferase activity (acceptor substrate specificity, monosaccharide acceptors); conditions: 10 nmol acceptor, MES pH 6.5, MnCl2 10 mM, 37° C. 16 hours
T1 construct: made in house; host or cells: Sf21 insect cells (baculovirus, pFBIF-G34A)
T1 sequence (Q8NCR0 36-500): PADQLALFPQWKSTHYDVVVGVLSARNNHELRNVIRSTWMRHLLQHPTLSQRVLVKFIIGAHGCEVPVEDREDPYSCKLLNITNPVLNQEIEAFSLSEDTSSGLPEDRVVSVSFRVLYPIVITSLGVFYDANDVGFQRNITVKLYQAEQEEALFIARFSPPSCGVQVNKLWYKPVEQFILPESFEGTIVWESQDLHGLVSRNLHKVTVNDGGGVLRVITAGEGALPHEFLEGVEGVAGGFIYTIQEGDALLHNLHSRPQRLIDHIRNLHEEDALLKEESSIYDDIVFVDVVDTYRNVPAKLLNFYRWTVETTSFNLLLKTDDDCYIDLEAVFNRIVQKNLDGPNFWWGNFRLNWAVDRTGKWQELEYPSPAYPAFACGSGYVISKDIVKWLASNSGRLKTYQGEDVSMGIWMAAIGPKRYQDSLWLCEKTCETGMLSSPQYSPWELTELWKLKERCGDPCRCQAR
From the text: The following reaction system was used for examining the G34 enzyme protein for its acceptor substrate specificity in its GalNAc transfer activity.
In the reaction solutions shown below, each of the following was used at 10 nmol as an acceptor substrate: pNp-α-Gal, oNp-β-Gal, Bz-α-GlcNAc, pNp-β-GlcNAc, Bz-α-GalNAc, pNp-β-GalNAc, pNp-α-Glc, pNp-β-Glc, pNp-β-GlcA, pNp-α-Fuc, pNp-α-Xyl, pNp-β-Xyl and pNp-α-Man (all purchased from SIGMA), wherein “Gal” represents a D-galactose residue, “Xyl” represents a D-xylose residue, “Fuc” represents a […] residue, “Man” represents a D-mannose residue and “GlcA” represents a glucuronic acid residue.
Each reaction solution was prepared as follows (final concentrations in parentheses): each substrate (10 nmol), MES (2-morpholinoethanesulfonic acid) (pH 6.5, 50 mM), MnCl2 (10 mM), Triton X-100 (trade name) (0.1%), UDP-GalNAc (2 mM) and UDP-[^14C]GlcNAc (40 nCi) were mixed and supplemented with 5 μl G34 enzyme solution, followed by dilution with H2O to a total volume of 20 μl (see Table 1).
The above reaction mixtures were each reacted at 37° C. for 16 hours. After completion of the reaction, 200 μl H2O was added and each mixture was lightly centrifuged to obtain the supernatant. […] The eluate was mixed with 5 ml liquid scintillator ACSII (Amersham Biosciences) and measured for the amount of radiation with a scintillation counter (Beckman Coulter).

human G34 protein [2] = biological target: T1, human G34 protein; experiment: Optimum buffer and optimum pH for GalNAc transferase activity of G34; conditions: acceptor pNp-β-GlcNAc
Protocol: The following reaction system was used for examining the optimum buffer and pH for the GalNAc transferase activity of G34. The acceptor substrate used was pNp-β-GlcNAc.
Any one of the following buffers was used (final concentrations in parentheses): MES (2-morpholinoethanesulfonic acid) buffer (pH 5.5, 5.78, 6.0, 6.5 and 6.75, 50 mM), sodium cacodylate buffer (pH 5.0, 5.6, 6.0, 6.2, 6.6, 6.8, 7.0, 7.2, 7.4 and 7.5, 25 mM) and N-[2-hydroxyethyl]piperazine-N′-[2-ethanesulfonic acid](HEPES) buffer (pH 6.75, 7.00, 7.30, 7.40 and 7.50, 14 mM). The substrate (10 nmol), MnCl2 (10 mM), Triton CF-54 (trade name) (0.3%), UDP-GalNAc (2 mM) and […] (40 nCi) were mixed and supplemented with 5 μl G34 enzyme solution, followed by dilution with H2O to a total volume of 20 μl.
The above reaction mixtures were each reacted at 37° C. for 16 hours. After completion of the reaction, 200 μl H2O was added and each mixture was lightly centrifuged to obtain the supernatant. The supernatant was passed through a Sep-Pak plus C18 Cartridge (Waters), which had been washed once with 1 ml methanol and twice with 1 ml H2O and then equilibrated, to allow the substrate and product in the supernatant to adsorb to the cartridge. After washing the cartridge twice with 1 ml H2O, the adsorbed substrate and product were eluted with 1 ml methanol. The eluate was mixed with 5 ml liquid scintillator ACSII (Amersham Biosciences) and measured for the amount of radiation with a scintillation counter (Beckman Coulter).

human G34 protein [3] = biological target: T1, human G34 protein; experiment: Time course of G34 enzymatic activity with Bz-β-GlcNAc as acceptor
[4] = sodium cacodylate buffer pH 5.0
[5] = sodium cacodylate buffer pH 5.6
[6] = sodium cacodylate buffer pH 6.0
[7] = sodium cacodylate buffer pH 6.2
[8] = sodium cacodylate buffer pH 6.6
[9] = sodium cacodylate buffer pH 6.8
[10] = sodium cacodylate buffer pH 7.0
[11] = sodium cacodylate buffer pH 7.2
[12] = sodium cacodylate buffer pH 7.4

Question: How did the “GalNAc transfer to acceptor substrate” value (human G34 protein [1]) turn out when CC(=O)N[C@H]1[C@H](Oc2ccc([N+](=O)[O-])cc2)O[C@H](CO)[C@@H](O)[C@@H]1O [pNp-β-GlcNAc] was run?
Answer: ability to transfer GalNAc to pNp-β-GlcNAc

B1: G34: human β1,3-N-acetyl-D-galactosaminyltransferase protein (SEQ ID NO: 2), expressed FLAG-tagged from amino acid 36 to the C-terminal end (protein, listed as Homo sapiens)
chain: PADQLALFPQWKSTHYDVVVGVLSARNNHELRNVIRSTWMRHLLQHPTLSQRVLVKFIIGAHGCEVPVEDREDPYSCKLLNITNPVLNQEIEAFSLSEDTSSGLPEDRVVSVSFRVLYPIVITSLGVFYDANDVGFQRNITVKLYQAEQEEALFIARFSPPSCGVQVNKLWYKPVEQFILPESFEGTIVWESQDLHGLVSRNLHKVTVNDGGGVLRVITAGEGALPHEFLEGVEGVAGGFIYTIQEGDALLHNLHSRPQRLIDHIRNLHEEDALLKEESSIYDDIVFVDVVDTYRNVPAKLLNFYRWTVETTSFNLLLKTDDDCYIDLEAVFNRIVQKNLDGPNFWWGNFRLNWAVDRTGKWQELEYPSPAYPAFACGSGYVISKDIVKWLASNSGRLKTYQGEDVSMGIWMAAIGPKRYQDSLWLCEKTCETGMLSSPQYSPWELTELWKLKERCGDPCRCQAR
modifications: FLAG tag
Question: Which “+ (amount of radiation)” value (human G34 protein [2]; HEPES buffer pH 6.75) does the source give for B1 here?
Answer: 4894

Question: What about the “HEPES (+ minus −)” value (human G34 protein [2]; HEPES buffer pH 6.75) of the same molecule?
Answer: 4745

Question: What about the “+ (amount of radiation)” value (human G34 protein [2]; HEPES buffer pH 7.00) of the same molecule?
Answer: 4912

Question: And the “HEPES (+ minus −)” value (human G34 protein [2]; HEPES buffer pH 7.00)?
Answer: 4791

Question: What about the “+ (amount of radiation)” value (human G34 protein [2]; HEPES buffer pH 7.30) of the same molecule?
Answer: 4294

Question: What about the “HEPES (+ minus −)” value (human G34 protein [2]; HEPES buffer pH 7.30) of the same molecule?
Answer: 4167

Question: What about the “+ (amount of radiation)” value (human G34 protein [2]; HEPES buffer pH 7.40) of the same molecule?
Answer: 6630

Question: What about the “HEPES (+ minus −)” value (human G34 protein [2]; HEPES buffer pH 7.40) of the same molecule?
Answer: 6510

Question: And the “+ (amount of radiation)” value (human G34 protein [2]; HEPES buffer pH 7.50)?
Answer: 6895

Question: What about the “HEPES (+ minus −)” value (human G34 protein [2]; HEPES buffer pH 7.50) of the same molecule?
Answer: 6655

Question: And the “+ (amount of radiation)” value (human G34 protein [2]; MES buffer pH 5.50)?
Answer: 3735

Question: What about the “MES (+ minus −)” value (human G34 protein [2]; MES buffer pH 5.50) of the same molecule?
Answer: 3538

Question: What about the “+ (amount of radiation)” value (human G34 protein [2]; MES buffer pH 5.78) of the same molecule?
Answer: 3755

Question: What about the “MES (+ minus −)” value (human G34 protein [2]; MES buffer pH 5.78) of the same molecule?
Answer: 3571

Question: What about the “+ (amount of radiation)” value (human G34 protein [2]; MES buffer pH 6.00) of the same molecule?
Answer: 2514

Question: What about the “MES (+ minus −)” value (human G34 protein [2]; MES buffer pH 6.00) of the same molecule?
Answer: 2373

Question: And the “+ (amount of radiation)” value (human G34 protein [2]; MES buffer pH 6.50)?
Answer: 1981

Question: What about the “MES (+ minus −)” value (human G34 protein [2]; MES buffer pH 6.50) of the same molecule?
Answer: 1247

Question: And the “+ (amount of radiation)” value (human G34 protein [2]; MES buffer pH 6.75)?
Answer: 3289

Question: What about the “MES (+ minus −)” value (human G34 protein [2]; MES buffer pH 6.75) of the same molecule?
Answer: 3153

Question: What about the “+ (amount of radiation)” value (human G34 protein [2]; [4]) of the same molecule?
Answer: 6042

Question: And the “Sodium cacodylate (+ minus −)” value (human G34 protein [2]; [4])?
Answer: 5838

Question: And the “+ (amount of radiation)” value (human G34 protein [2]; [5])?
Answer: 3353

Question: What about the “Sodium cacodylate (+ minus −)” value (human G34 protein [2]; [5]) of the same molecule?
Answer: 3194

Question: What about the “+ (amount of radiation)” value (human G34 protein [2]; [6]) of the same molecule?
Answer: 2689

Question: What about the “Sodium cacodylate (+ minus −)” value (human G34 protein [2]; [6]) of the same molecule?
Answer: 2429

Question: And the “+ (amount of radiation)” value (human G34 protein [2]; [7])?
Answer: 907

Question: What about the “Sodium cacodylate (+ minus −)” value (human G34 protein [2]; [7]) of the same molecule?
Answer: 769

Question: And the “+ (amount of radiation)” value (human G34 protein [2]; [8])?
Answer: 1093

Question: What about the “Sodium cacodylate (+ minus −)” value (human G34 protein [2]; [8]) of the same molecule?
Answer: 957

Question: What about the “+ (amount of radiation)” value (human G34 protein [2]; [9]) of the same molecule?
Answer: 2488

Question: What about the “Sodium cacodylate (+ minus −)” value (human G34 protein [2]; [9]) of the same molecule?
Answer: 2230

Question: What about the “+ (amount of radiation)” value (human G34 protein [2]; [10]) of the same molecule?
Answer: 4965

Question: What about the “Sodium cacodylate (+ minus −)” value (human G34 protein [2]; [10]) of the same molecule?
Answer: 4706

Question: What about the “+ (amount of radiation)” value (human G34 protein [2]; [11]) of the same molecule?
Answer: 4377

Question: And the “Sodium cacodylate (+ minus −)” value (human G34 protein [2]; [11])?
Answer: 4068

Question: What about the “+ (amount of radiation)” value (human G34 protein [2]; [12]) of the same molecule?
Answer: 4930

Question: And the “Sodium cacodylate (+ minus −)” value (human G34 protein [2]; [12])?
Answer: 4626

Question: What about the “Area (%)” value (human G34 protein [3]; reaction time 1 hour) of the same molecule?
Answer: 0%

Question: What about the “Area (%)” value (human G34 protein [3]; reaction time 2 hours) of the same molecule?
Answer: 2.388%

Question: What about the “Area (%)” value (human G34 protein [3]; reaction time 4 hours) of the same molecule?
Answer: 6.195%

Question: What about the “Area (%)” value (human G34 protein [3]; reaction time 16 hours) of the same molecule?
Answer: 13.719%
